{"source": "paper PMC2827208", "key": {"[1]": {"molecular_target": "dsRed-tagged RetGC1 (human) (UniProt Q02846)", "assay": "ratio of GFP and dsRed tag fluorescence in co-transfected cells"}, "[2]": {"molecular_target": "wild type recombinant human RetGC1 (human) (UniProt Q02846)", "assay": "co-localisation of GCAP1-GFP with RetGC1 in co-transfected cells"}, "[3]": {"molecular_target": "R838S RetGC1 (human) (UniProt Q02846)", "assay": "co-localisation of GCAP1-GFP with RetGC1 in co-transfected cells"}}}
{"substance": "GFP-tagged bovine GCAP1 (from UniProt P46065 1-205) (natural protein)", "values": [{"measurement": "stoichiometry N (GCAP1 per RetGC1)", "setting": "[1]", "result": 0.86}, {"measurement": "stoichiometry N", "setting": "[1]; scale: molar ratio between the two proteins at saturation", "result": 1.01}, {"measurement": "cell:nucleus GCAP1-GFP fluorescence intensity ratio", "setting": "[2]", "result": 10.6}, {"measurement": "cell:nucleus GCAP1-GFP fluorescence intensity ratio", "setting": "[3]", "result": 9.3}]}
